Consider six molecules from patent US20240059799A1 (Pfizer, published 2024).

Sequences and labels used below:
B1: p40TL1A-0041 KiH mFd bispecific antibody (bispecific antibody)
heavy: QVQLVQSGAEVKKPGASVKVSCKASGYDYTYYGISWVRQAPGQGLEWMGWISTYNTGTHYAPSLQGRVTMTTDTSTSTAYMELRSLRSDDTAVYYCARESYYGSGAFRGGMDVWGQGTTVTVSSASTKGPSVFPLAPSSKSTSGGTAALGCLVKDYFPEPVTVSWNSGALTSGVHTFPAVLQSSGLYSLSSVVTVPSSSLGTQTYICNVNHKPSNTKVDKKVEPKSCDKTHTCPPCPAPEAAGAPSVFLFPPKPKDTLMISRTPEVTCVVVDVSHEDPEVKFNWYVDGVEVHNAKTKPREEQYNSTYRVVSVLTVLHQDWLNGKEYKCKVSNKALPAPIEKTISKAKGQPREPQVCTLPPSREEMTKNQVSLWCLVKGFYPSDIAVEWESNGQPENNYKTTPPVLDSDGSFFLYSKLTVDKSRWQQGNVFSCSVLHEALHSHYTQKSLSLSPGK
light: not shown
LC-Fc: not shown
mFd: EVQLVQSGAEVKKPGESLKISCKGSGYSFTTYWLGWVRQMPGKGLDWIGIMSPVDSDIRYSPSFQGQVTMSVDKSITTAYLQWNSLKASDTAMYYCARRRPGQGYFDFWGQGTLVTVSSASTKGPSVFPLAPSSKSTSGGTAALGCLVKDYFPEPVTVSWNSGALTSGVHTFPAVLQSSGLYSLSSVVTVPSSSLGTQTYICNVNHKPSNTKVDKKVEPKSC
notes: KiH mFd format with the anti-p40 arm as modified Fd
B2: p40TL1A-0042 KiH mFd bispecific antibody (bispecific antibody)
heavy: B1 heavy with C356Y, S361C, W373S, L375A, Y414V
light: not shown
LC-Fc: not shown
mFd: B1 mFd
notes: as for B1
B3: p40TL1A-0040 KiH mFd bispecific antibody (bispecific antibody)
heavy: EVQLVQSGAEVKKPGESLKISCKGSGYSFTTYWLGWVRQMPGKGLDWIGIMSPVDSDIRYSPSFQGQVTMSVDKSITTAYLQWNSLKASDTAMYYCARRRPGQGYFDFWGQGTLVTVSSASTKGPSVFPLAPSSKSTSGGTAALGCLVKDYFPEPVTVSWNSGALTSGVHTFPAVLQSSGLYSLSSVVTVPSSSLGTQTYICNVNHKPSNTKVDKKVEPKSCDKTHTCPPCPAPEAAGAPSVFLFPPKPKDTLMISRTPEVTCVVVDVSHEDPEVKFNWYVDGVEVHNAKTKPREEQYNSTYRVVSVLTVLHQDWLNGKEYKCKVSNKALPAPIEKTISKAKGQPREPQVYTLPPCREEMTKNQVSLSCAVKGFYPSDIAVEWESNGQPENNYKTTPPVLDSDGSFFLVSKLTVDKSRWQQGNVFSCSVLHEALHSHYTQKSLSLSPGK
light: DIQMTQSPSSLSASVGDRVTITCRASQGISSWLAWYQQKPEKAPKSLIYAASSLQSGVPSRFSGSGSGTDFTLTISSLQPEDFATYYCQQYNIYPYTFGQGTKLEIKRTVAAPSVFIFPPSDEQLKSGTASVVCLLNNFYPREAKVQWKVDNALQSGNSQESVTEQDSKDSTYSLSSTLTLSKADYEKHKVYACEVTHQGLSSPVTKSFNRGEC
LC-Fc: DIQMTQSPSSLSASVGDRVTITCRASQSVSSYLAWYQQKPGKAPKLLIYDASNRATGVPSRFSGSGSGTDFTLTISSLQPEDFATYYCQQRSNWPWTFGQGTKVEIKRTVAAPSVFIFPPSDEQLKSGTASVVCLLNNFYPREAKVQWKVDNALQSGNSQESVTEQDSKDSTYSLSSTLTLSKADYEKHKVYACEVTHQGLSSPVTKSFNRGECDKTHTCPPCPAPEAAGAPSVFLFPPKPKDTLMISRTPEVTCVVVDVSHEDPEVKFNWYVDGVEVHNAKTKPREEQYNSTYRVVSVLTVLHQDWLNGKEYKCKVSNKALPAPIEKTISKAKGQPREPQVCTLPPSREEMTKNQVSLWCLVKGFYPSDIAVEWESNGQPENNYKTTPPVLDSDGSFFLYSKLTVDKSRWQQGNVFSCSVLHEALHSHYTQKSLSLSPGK
mFd: QVQLVQSGAEVKKPGASVKVSCKASGYDYTYYGISWVRQAPGQGLEWMGWISTYNTGTHYAPSLQGRVTMTTDTSTSTAYMELRSLRSDDTAVYYCARESYYGSGAFRGGMDVWGQGTTVTVSSASTKGPSVFPLAPSSKSTSGGTAALGCLVKDYFPEPVTVSWNSGALTSGVHTFPAVLQSSGLYSLSSVVTVPSSSLGTQTYICNVNHKPSNTKVDKKVEPKSC
notes: Same format as p40TL1A-0033 with knob and hole swapped
B4: TL1A-0368 MBsAb (bispecific antibody)
heavy 1: B1 heavy
heavy 2: QVQLVQSGAEVKKPGASVKVSCKASGYTFTSYGISWVRQAPGQGLEWMGWISAYNGNTNYAQKLQGRVTMTTDTSTSTAYMELRSLRSDDTAVYYCARESYYGSEAFRAGMDVWGQGTTVTVSS
light: not shown
notes: not shown: human IgG1 constant region with hole KiH, effector-minimizing and LS mutations
B5: TL1A-0370 MBsAb (bispecific antibody)
heavy 1: B1 heavy
heavy 2: B4 heavy 2 with Y101S
light: not shown
notes: as for B4
B6: TL1A-0375 MBsAb (bispecific antibody)
heavy 1: B1 heavy
heavy 2: not shown
light: not shown
notes: as for B4

Substitutions are numbered along the chain they refer to.

T3 sequence (P02769 25-607 limits assumed): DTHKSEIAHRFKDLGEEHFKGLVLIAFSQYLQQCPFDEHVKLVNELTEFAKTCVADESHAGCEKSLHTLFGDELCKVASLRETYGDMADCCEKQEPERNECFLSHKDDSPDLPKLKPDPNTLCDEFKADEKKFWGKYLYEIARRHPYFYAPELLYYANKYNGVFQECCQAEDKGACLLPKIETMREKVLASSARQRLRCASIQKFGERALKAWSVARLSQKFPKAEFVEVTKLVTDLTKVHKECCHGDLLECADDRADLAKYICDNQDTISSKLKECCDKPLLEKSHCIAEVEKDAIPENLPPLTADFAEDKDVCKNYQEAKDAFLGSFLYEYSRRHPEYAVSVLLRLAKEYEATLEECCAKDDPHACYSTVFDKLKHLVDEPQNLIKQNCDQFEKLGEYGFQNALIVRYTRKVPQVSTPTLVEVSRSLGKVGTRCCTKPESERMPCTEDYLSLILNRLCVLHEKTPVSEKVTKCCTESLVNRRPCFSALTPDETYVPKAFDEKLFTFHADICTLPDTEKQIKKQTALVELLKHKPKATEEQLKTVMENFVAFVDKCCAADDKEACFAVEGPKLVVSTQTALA

The first experiment has as its target T1, recombinant human TL1A (human, UniProt O95150 71-251).
T1 chain: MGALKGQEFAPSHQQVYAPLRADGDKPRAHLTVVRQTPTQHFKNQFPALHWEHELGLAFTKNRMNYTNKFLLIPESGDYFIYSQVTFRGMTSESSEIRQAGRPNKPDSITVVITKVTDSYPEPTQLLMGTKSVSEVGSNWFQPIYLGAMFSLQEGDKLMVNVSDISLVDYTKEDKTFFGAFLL
The experiment is described as follows: cell-based or functional assay.
B1: the “NF-κB assay IC50 (TF-1 reporter cells, 384-well)” value (from here on “NF-κB assay IC50”) amounted to 0.32 nM.

Regarding B2, the “NF-κB assay IC50” value came out at 0.32 nM.

Take B3: the “NF-κB assay IC50” value amounted to 0.27 nM.

The next experiment has as its target T2, human IL-23 (human, UniProt P29460 23-328; Q9NPF7 20-189).
T2 construct: also called recombinant human IL-23 (p40/p19)
T2 sequence 1: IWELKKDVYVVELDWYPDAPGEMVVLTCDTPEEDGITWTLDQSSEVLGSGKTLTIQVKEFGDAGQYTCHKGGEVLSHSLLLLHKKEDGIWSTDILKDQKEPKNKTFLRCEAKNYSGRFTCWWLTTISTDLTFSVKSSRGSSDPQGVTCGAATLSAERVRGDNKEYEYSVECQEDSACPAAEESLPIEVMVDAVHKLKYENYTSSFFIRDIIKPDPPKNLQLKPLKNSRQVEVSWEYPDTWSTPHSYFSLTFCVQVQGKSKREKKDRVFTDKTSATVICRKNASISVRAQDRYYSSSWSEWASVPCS
T2 sequence 2: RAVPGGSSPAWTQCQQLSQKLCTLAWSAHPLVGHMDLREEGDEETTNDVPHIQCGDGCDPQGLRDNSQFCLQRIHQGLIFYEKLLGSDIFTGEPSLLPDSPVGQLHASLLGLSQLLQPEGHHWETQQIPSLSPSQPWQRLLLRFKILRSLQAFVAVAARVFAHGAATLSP
As to the kind of experiment: SPR, 37 C; antibody captured by anti-human Fc, human IL-23 injected. The procedure:
(§1) SPR was utilized to determine if the affinity constants of each arm of the bispecific variants binding human IL-23, containing the p40 subunit, and human TL1A were the same for each bispecific approach. For the analysis of the p40 binding arm, kinetic assays were conducted at 37° C. using a collection rate of 10 Hz on a Biacore™ 8 K+ instrument (GE Healthcare). An anti-human IgG antibody (anti-human Fc, GE Healthcare, 22-0648-88) was amine coupled to all four flow cells of a carboxymethylated dextran coated sensor chip (GE Healthcare,) using the manufacturer's recommended protocol. […] For the analysis of the TL1A binding arm, kinetic assays were conducted at 37° C. using a collection rate of 10 Hz on a Biacore™ T200 instrument (GE Healthcare).
(§2) As described above in EXAMPLE 12, SPR was utilized to determine if the affinity constants of each arm of the bispecific variants binding human IL-23, containing the p40 subunit, and human TL1A were the same for each bispecific variant.
(In general: SPR reads the build-up and loss of mass on a sensor chip optically.)
The Kd is the constant that tells how readily two partners part at equilibrium. One may read the koff as the rate constant with which the complex falls apart. For orientation: kon means a measure of how fast the partners come together. As to B1, the Kd was 0.213 nM, the koff was 0.000485 s⁻¹ and the kon is 2.29e+06 M⁻¹ s⁻¹.

In turn, B2 had a Kd of 0.207 nM, a koff of 0.000488 s⁻¹ and a kon of 2.35e+06 M⁻¹ s⁻¹.

As for B3, the affinity, expressed as Kd, was 0.194 nM; the koff worked out at 0.00055 s⁻¹; the kon was found to be 2.83e+06 M⁻¹ s⁻¹.

Another experiment addresses T3, bovine serum albumin (bovine, UniProt P02769 25-607).
T3 construct: also called BSA
As to the kind of experiment: direct binding ELISA on coated BSA. The method, then:
(§3) For the direct binding ELISA method to HSA or BSA, 96-well high binding plates (Corning, product number 3590) were coated with 1 μg/mL recombinant HSA or BSA in 100 μL/well in PBS overnight at 4° C. Plates were then blocked in PBS+0.02% casein solution and washed with PBS+0.05% Tween-20 following standard ELISA protocol. […] Plates were washed with PBS+0.05% Tween-20 following standard ELISA protocol, and goat anti-human IgG-Fc HRP conjugated secondary antibody (Pierce, #31413) diluted to 1:10,000 in assay buffer was added to plates and incubated for 1 hour at room temperature. Next, the plates were washed with PBS+0.05% Tween-20 following standard ELISA protocol, and then TMB substrate (BioFX Laboratories, catalog number TMBW-0100-01) was added to plates.
(§4) Reactions were stopped after approximately 5 minutes by adding 0.18 M ortho-phosphoric acid to each well and absorbance was read at 450 nm. […] For this method, samples diluted to 0.3 mg/mL were dispensed into the sample tray of a MicroCal VP-Capillary DSC with Autosampler (Malvern Instruments, Inc.), equilibrated for 5 minutes at 10° C. and then scanned up to 110° C. at a rate of 100° C. per/hour. A filtering period of 16 seconds was selected. Raw data was baseline corrected and the protein concentration was normalized. Origin Software 7.0 (Origin Lab Corporation, Northampton, MA) was used to fit the data to an MN2-State Model with an appropriate number of transitions.
Background: ELISA stands for enzyme-linked immunosorbent assay.
On to B4, for which the binding result is “no binding (tested: 0.5-1000 nM)”.

In the case of B5, the binding result was “no binding (tested: 0.5-1000 nM)”.

As for B6, the binding result is on record as “no binding (tested: 0.5-1000 nM)”.

Another experiment concerns the target T4, human serum albumin (human, UniProt P02768 25-609).
T4 construct: also called HSA
The experiment is described as follows: direct binding ELISA on coated HSA. The method, then: as §3, §4
For the molecule B4, the binding result is listed as “no binding (tested: 0.5-1000 nM)”.

Consider B5, for which the binding result was “no binding (tested: 0.5-1000 nM)”.

Regarding B6, the binding result is listed as “no binding (tested: 0.5-1000 nM)”.

The target of the next experiment is T1, recombinant human TL1A. The experiment is described as follows: SPR, 37 C; biotinylated human TL1A captured on Biotin CAPture chip, antibody injected. The procedure:
as §1, §2
With B1, the Kd amounted to 0.577 nM, the koff came out at 7.56e-05 s⁻¹ and the kon came to 131000 M⁻¹ s⁻¹.

As to B2, the Kd came out at 0.419 nM, the koff was determined as 7.42e-05 s⁻¹ and the kon is 177000 M⁻¹ s⁻¹.

With B3, the Kd is 0.627 nM, the dissociation rate constant (koff) came out at 8.22e-05 s⁻¹ and the kon stood at 131000 M⁻¹ s⁻¹.
